Reference: US20070020327A1
Like-named read-outs stand apart in the source and are kept apart here.

How the values were obtained:
HLA-A*0201 (human) [1] = experiment: inhibition of 125I-standard peptide binding to purified HLA, gel filtration
HLA-A*0301 (human) [2] = experiment: competition with 125I-labelled standard peptide (941.12 [..]) for purified HLA-A*0301, gel filtration
HLA-A*0202 (human) [3] = experiment: competition with 125I standard peptide for purified HLA; gel filtration; details: remark: other sources report otherwise
HLA-A*0201 (human) [4] = experiment: competition with 125I-labelled standard peptide 941.01 for purified HLA, gel filtration; details: scale: ratio
HLA-A*0203 (human) = experiment: as above; details: scale: ratio
HLA-A*0202 (human) [5] = experiment: as above; details: scale: ratio
HLA-A*0201 (human) [6] = experiment: competition with 125I-labelled standard peptide (941.01 [..]) for purified HLA, gel filtration
HLA-A*1101 (human) = experiment: competition with 125I-labelled standard peptide on purified HLA-A*1101, gel filtration
HLA-A*0301 (human) [7] = experiment: competition with 125I-labelled standard peptide for purified HLA-A*0301, gel filtration
HLA-A*0206 (human) = experiment: competition with 125I-labelled standard peptide 941.01 for purified HLA, gel filtration; details: scale: ratio
HLA-A*0201 (human) [8] = experiment: inhibition of 125I-labelled probe peptide binding to purified HLA, gel filtration; details: remark: other sources report otherwise
[9] = remark: other sources report otherwise

For LVASRGRA (modifications not checked) [PSA 37 LVASRGRA], the binding affinity ratio (IC50 standard peptide / IC50 test peptide) (ratio to standard peptide) (HLA-A*0201 (human) [1]) was 0.0001.

YDVLLSYPNK (modifications not checked) [PSM.113 …] showed a binding affinity ratio (IC50 of standard peptide / IC50 of test peptide) (HLA-A*0301 (human) [2]) of 0.0005.

Binder ALFPPEGVSV (modifications not checked) [Peptide 1419.61 … (PAP.122.V10)] has an IC50 (HLA-A*0202 (human) [3]) of 1 nM.

VTEFMLCA (modifications not checked) [VTEFMLCA (Kallikrein, position 192, 8 amino acids)] was tested, and the binding affinity ratio (HLA-A*0201 (human) [4]) was -0.0001, the binding affinity ratio (HLA-A*0203 (human)) was 0.0005 and the binding affinity ratio (HLA-A*0202 (human) [5]) was 0.0003.

Binder FAELVGPVI (modifications not checked) [PAP peptide … (position 356, 9 amino acids)] has a binding affinity ratio (IC50 of standard peptide / IC50 of test peptide) (HLA-A*0201 (human) [6]) of 0.0002.

LGEYIRKRYR (modifications not checked) [PAP peptide … (position 81, 10 amino acids)] was tested, and the binding affinity ratio (IC50 of standard peptide / IC50 of test peptide) (HLA-A*1101 (human)) was 0.0002.

RAVCGGVLVH (modifications not checked) [… (PSA, position 43)] was tested, and the binding affinity ratio (IC50 of the standard peptide / IC50 of the test peptide) (HLA-A*0301 (human) [7]; [9]) was 0.011.

LSLLSLYGIH (modifications not checked) [PAP peptide … (position 241, 10 amino acids)] gave a binding affinity ratio (IC50 of standard peptide / IC50 of test peptide) (HLA-A*1101 (human)) of 0.0002.

With LGEYIRKRY (modifications not checked) [PAP peptide … (position 81, 9 amino acids)] the binding affinity ratio (IC50 of standard peptide / IC50 of test peptide) (HLA-A*1101 (human); [9]) was 0.0002.

YDAQKLLEK (modifications not checked) [PSM.300 …] showed a binding affinity ratio (IC50 of standard peptide / IC50 of test peptide) (HLA-A*0301 (human) [2]) of 0.0006.

LTPKKLQCV (modifications not checked) [PSA 162 …] gave a binding affinity ratio (IC50 standard peptide / IC50 test peptide) (ratio to standard peptide) (HLA-A*0201 (human) [1]) of 0.0003.

Work on GLHGQDLFGI (modifications not checked) [Peptide 1166.11 … (PAP.196)] yielded an IC50 (HLA-A*0202 (human) [3]) of 0.9 nM.

ESYKHEQVY (modifications not checked) [PAP 95 peptide …] gave a binding affinity ratio (IC50 of standard peptide / IC50 of test peptide) (HLA-A*0301 (human) [7]; [9]) of 0.0002.

Work on WAHCGGVL (modifications not checked) [WAHCGGVL (Kallikrein, position 47, 8 amino acids)] yielded a binding affinity ratio (HLA-A*0201 (human) [4]) of -0.0001, a binding affinity ratio (HLA-A*0203 (human)) of 0.0005 and a binding affinity ratio (HLA-A*0206 (human)) of 0.0001. The binding affinity ratio (HLA-A*0202 (human) [5]) was 0.0003.

For EVFFQRLGI (modifications not checked) [PSM peptide EVFFQRLG (position 522, 9 amino acids as printed)], the binding affinity ratio (IC50 of standard peptide / IC50 of test peptide) (HLA-A*0201 (human) [6]) was 0.0002.

Work on VVHYRKWIKDT (modifications not checked) [… (PSA, position 242, 11 amino acids)] yielded a binding affinity ratio (HLA-A*0201 (human) [4]) of 0.0001, a binding affinity ratio (HLA-A*0203 (human)) of 0.0002 and a binding affinity ratio (HLA-A*0206 (human)) of -0.0001. For the same binder, the binding affinity ratio (HLA-A*0202 (human) [5]) was 0.0001.

Work on FTGNFSTQKV (modifications not checked) [PSM peptide … (position 333, 10 amino acids)] yielded a binding affinity ratio (IC50 of standard peptide / IC50 of test peptide) (HLA-A*0201 (human) [6]) of 0.0001.

TLRGAVEPDR (modifications not checked) [… (PSM, position 361, 10 amino acids)] gave a binding affinity ratio (IC50 of the standard peptide / IC50 of the test peptide) (HLA-A*0301 (human) [2]) of 0.0003.

For VVHYRKWIKDT (modifications not checked) [… (Kallikrein, position 246, 11 amino acids)], the binding affinity ratio (HLA-A*0201 (human) [4]) was 0.0001, the binding affinity ratio (HLA-A*0203 (human)) was 0.0002 and the binding affinity ratio (HLA-A*0206 (human)) was 0.0001. For the same binder, the binding affinity ratio (HLA-A*0202 (human) [5]) was 0.0001.

LTELYFEK (modifications not checked) [PAP peptide LTELYFEK (position 315, 8 amino acids)] gave a binding affinity ratio (IC50 of standard peptide / IC50 of test peptide) (HLA-A*1101 (human)) of 0.01.

ALSVGCTGV (modifications not checked) [Peptide 1418.15 (HuK2.9.V9) …] gave an IC50 (HLA-A*0201 (human) [8]) of 24 nM.

With ETYELVEKFY (modifications not checked) [PSM 557 peptide …] the binding affinity ratio (IC50 of standard peptide / IC50 of test peptide) (HLA-A*0301 (human) [7]) was 0.0006.

For TAAHCIRNK (modifications not checked) [… (PSA, position 58, 9 amino acids)], the binding affinity ratio (IC50 of the standard peptide / IC50 of the test peptide) (HLA-A*0301 (human) [2]; [9]) was 0.0094.

In the case of VTKFMLCA (modifications not checked) [VTKFMLCA (PSA, position 188, 8 amino acids)], the binding affinity ratio (HLA-A*0201 (human) [4]) is reported as 0.0001, the binding affinity ratio (HLA-A*0203 (human)) is reported as 0.0031 and the binding affinity ratio (HLA-A*0206 (human)) is reported as -0.0001. The binding affinity ratio (HLA-A*0202 (human) [5]) was 0.0002.

Work on GAAPLILSRIV (modifications not checked) [PSA peptide … (position 12)] yielded a binding affinity ratio (HLA-A*0203 (human); [9]) of 0.011, a binding affinity ratio (HLA-A*0206 (human); [9]) of 0.0006 and a binding affinity ratio (HLA-A*0202 (human) [5]; [9]) of 0.022.

Work on DLMLLRLSEPV (modifications not checked) [Peptide 63.0109 (HuK2.120.V11; PSA.116.V11) …] yielded an IC50 (HLA-A*0201 (human) [8]) of 50 nM.
